Experimental data taken from the supplement of paper PMC10567573.

B1: KLHL12 (parent)
chain: REESLPNLLQYVRMPLLTPRYITD
B2: TRIM55 (parent)
chain: FQMEKIEHGYENMNHFTVNLNREE

Variants of: B1
Experiment: protein stability index of a GFP-peptide fusion (GPS, HEK-293T) (PSI 1-6); higher = more stable
Details: c terminus: a fixed tail appended
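Note: lentivirally expressed fusions sorted by FACS into six bins by GFP to DsRed ratio, PSI derived from sequencing read proportions per bin multiplied by bin number.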

Protein stability index, by site and new letter:
R13: H 2.38; M 2.07; F 2.06; V 2.66; D 2.48; N 2.58; P 2.97; Q 2.31; Y 2.53; T 1.64; W 2.84; E 2.84; A 1.49; L 3.6; G 1.76; C 3.21; S 1.52; K 2.67
M14: H 2.89; Q 2.88; G 3.11; L 2.35; C 2.02; V 2.87; F 2.09; Y 2.58; A 2.42; D 3.17; R 2.68; N 2.4; P 3.36; E 3.52; K 3.46; W 2.13; I 2.56; T 2.97; S 3.13
S4: W 1.9; L 1.89; D 2.56; P 2.79; C 2.71; I 2.16; N 1.93; F 2.15; Q 2.51; G 2.69; Y 2.45; E 2.72; A 2.65; R 2.5; H 2.51; M 2.21; K 2.41; T 2.34; V 1.82
L8: Y 2.67; H 3.27; T 3.12; G 2.79; E 3; D 3.75; N 3.22; W 2.12; R 2.98; V 2.53; A 3.24; Q 3.17; M 2.69; K 2.98; I 2.41; F 2.4; S 3.21; C 2.29; P 3.18
Y11: Q 3.42; R 3.21; N 3.47; W 1.96; P 3.56; F 2.92; I 2.68; H 2.88; S 3.33; L 2.09; C 2.82; E 3.9; V 2.51; G 3.52; K 2.87; A 2.76; D 3.96; T 3.06; M 2.34
L5: Q 2.81; W 2.21; G 2.67; C 2.79; K 2.65; R 2.52; E 3.4; P 2.75; F 2.16; D 3.15; S 2.8; N 2.52; T 2.79; H 2.51; V 2.59; Y 2.61; M 2.9; A 3.47; I 1.83
E3: H 2.23; Q 2.72; T 2.67; N 2.42; S 2.14; I 2.02; K 2.78; R 2.83; W 2.02; D 2.2; L 2.11; A 2.54; P 2.19; C 2.5; V 2.45; F 1.95; M 1.9; G 2.56; Y 1.71
N7: I 1.9; L 2.01; W 3.17; Q 2.65; Y 1.71; S 2.26; H 2.44; F 2.23; V 2.07; G 2.63; P 3.19; R 2.3; A 2.64; M 2.03; C 2.35; T 2.1; K 2.73; D 2.93; E 2.34
Q10: H 2.25; M 1.56; L 2.27; D 2.06; R 3.13; T 2.28; P 2.79; Y 2.16; K 2.38; G 2.45; A 2.47; F 2.22; S 2.33; W 1.17; E 2.41; C 2.39; N 2.05; I 4.07
P6: R 2.59; E 2.15; H 2.13; T 2.13; N 2.45; V 1.6; I 1.95; Q 1.91; W 2.11; C 2.05; Y 2.58; K 1.71; A 2.66; D 2.51; L 2; S 2.31; M 2.11; G 2.28; F 1.93
V12: T 3.01; R 3; A 3.16; K 2.81; C 1.98; G 2.91; S 3.16; M 2.33; L 1.86; Y 2.6; D 3.7; F 1.86; Q 3.07; E 3.85; P 3.45; H 2.74; I 2.77; N 3.1; W 1.81
L9: N 3.61; Q 3.77; F 2.27; S 3.36; G 3.03; T 3.45; R 3.14; E 3.23; I 2.32; C 3.33; H 3.29; P 3.07; D 3.1; K 2.57; A 2.97; V 2.51; W 2.49; M 2.44; Y 2.62
E2: R 2.85; C 3.52; S 3.42; A 3.56; Q 2.53; P 2.56; M 2.4; N 2.51; L 2.47; G 3.19; F 2.4; I 2.5; W 3.14; T 3.35; Y 2.83; V 2.63; H 2.92; K 2.31; D 2.38
P15: Y 4.19; H 2.65; R 1.69; D 2.01; Q 2.45; F 2.24; M 2.48; E 2.54; K 1.57; W 2; N 2.42; L 4.9; T 2.65; I 3.9; G 3.67; V 2.34; A 1.58; S 3.06
R1: D 2.63; A 2.23; G 2.23; P 2.16; T 2.19; Y 1.82; V 2.35; I 1.83; F 2.43; S 2.7; L 2.83; E 2.8; K 2.52; N 2.72; M 2.25; Q 2.31; C 1.96; W 1.61; H 2.18

Variants of: B2
Experiment: as above
Details: c terminus: a fixed tail appended

Protein stability index, by site and new letter:
F1: P 4.65; C 3.72
N14: P 2.79
E24: Q 3; K 2.57; P 2.37; H 2.43
E11: P 2.07
H15: M 1.95; F 2.14; Q 3.57; P 1.5
N21: A 2.89
F16: A 4.17
K5: T 3.08; E 4.2
Q2: T 3.35; Y 2.52
V18: S 3.77; C 2.03; F 3.21
T17: M 2.77
E23: F 1.88
M3: D 4.53; Y 3.06; R 2.66; A 2.57
N19: T 2.27; A 3.17; R 2.4; D 3.37; Q 2.68
L20: K 3.04; I 2.64
N12: V 2.04; T 2.76
M13: P 3.51; N 3.81; W 2.12; F 2.82
E7: T 2.27; C 2.42
H8: P 2.77; M 2.51; Y 3.03; I 2.21; F 2.09
I6: M 2.84; Y 2.97; F 2.15; Q 3.32
R22: W 2.59
